Data: patent US20250270737A1, “Antibodies That Bind GLP1R” (Twist Bioscience Corporation, priority 2019, published 2025)
Where a chain is given by its changes, count along the chain named.

B1: GLP1R-243: GLP1R scFv clone reformatted to IgG2; CDR-H3 SEQ ID NO 2301, heavy 2308, light 2315 (antibody)
heavy: MEWSWVFLFFLSVTTGVHSQVQLVQSGAEVKKPGSSVKVSCKASGGTFSTYGINWVRQAPGQGLEWMGGIIPIFGTANYAQKFQGRVTITADESTSTAYMELSSLRSEDTAVYYCARANQHFFGKGDNLAARDFINWLIQTKITDGSNPGYHYYGMDVWGQGTLVTVSSASASTKGPSVFPLAPCSRSTSESTAALGCLVKDYFPEPVTVSWNSGALTSGVHTFPAVLQSSGLYSLSSVVTVPSSNFGTQTYTCNVDHKPSNTKVDKTVERKCCVECPPCPAPPVAGPSVFLFPPKPKDTLMISRTPEVTCVVVDVSHEDPEVQFNWYVDGVEVHNAKTKPREEQFNSTFRVVSVLTVVHQDWLNGKEYKCKVSNKGLPAPIEKTISKTKGQPREPQVYTLPPSREEMTKNQVSLTCLVKGFYPSDIAVEWESNGQPENNYKTTPPMLDSDGSFFLYSKLTVDKSRWQQGNVFSCSVMHEALHNHYTQKSLSLSPG
light: MSVPTQVLGLLLLWLTDARCQSVLTQPPSVSAAPGQKVTISCSGSRSNIGKNYVSWYQQLPGTAPKLLIYENNERPSGIPDRFSGSKSGTSATLGITGLQTGDEADYYCSSYTTSNTQVFGGGTKLTVLGQPKAAPSVTLFPPSSEELQANKATLVCLISDFYPGAVTVAWKADSSPVKAGVETTTPSKQSNNKYAASSYLSLTPEQWKSHRSYSCQVTHEGSTVEKTVAPTECS
B2: GLP1R-241: GLP1R scFv clone reformatted to IgG2; CDR-H3 SEQ ID NO 2299, heavy 2306, light 2313 (antibody)
heavy: MEWSWVFLFFLSVTTGVHSQVQLVQSGAEVKKPGSSVKVSCKASGGTFSDYAISWVRQAPGQGLEWMGGIIPIFGTTNYAQKFQGRVTITADESTSTAYMELSSLRSEDTAVYYCAKHMSMQGSVAGGTFTSDVSSYLEGQAAKEFIAWLVKGGPSFIRADLVGDAFDVWGQGTLVTVSSASASTKGPSVFPLAPCSRSTSESTAALGCLVKDYFPEPVTVSWNSGALTSGVHTFPAVLQSSGLYSLSSVVTVPSSNFGTQTYTCNVDHKPSNTKVDKTVERKCCVECPPCPAPPVAGPSVFLFPPKPKDTLMISRTPEVTCVVVDVSHEDPEVQFNWYVDGVEVHNAKTKPREEQFNSTFRVVSVLTVVHQDWLNGKEYKCKVSNKGLPAPIEKTISKTKGQPREPQVYTLPPSREEMTKNQVSLTCLVKGFYPSDIAVEWESNGQPENNYKTTPPMLDSDGSFFLYSKLTVDKSRWQQGNVFSCSVMHEALHNHYTQKSLSLSPG
light: MSVPTQVLGLLLLWLTDARCQSVLTQPPSVSAAPGQKVTISCSGISSNIGNNYVSWYQQLPGTAPKLLIYDDDQRPSGIPDRFSGSKSGTSATLGITGLQTGDEADYYCGTWDNILSAAVFGGGTKLTVLGQPKAAPSVTLFPPSSEELQANKATLVCLISDFYPGAVTVAWKADSSPVKAGVETTTPSKQSNNKYAASSYLSLTPEQWKSHRSYSCQVTHEGSTVEKTVAPTECS
B3: GLP1R-244: GLP1R scFv clone reformatted to IgG2; CDR-H3 SEQ ID NO 2302, heavy 2309, light 2316 (antibody)
heavy: MEWSWVFLFFLSVTTGVHSQVQLVQSGAEVKKPGSSVKVSCKASGGTFSSYAISWVRQAPGQGLEWMGGIIPIFGTANYAQKFQGRVTITADESTSTAYMELSSLRSEDTAVYYCARANQHFAATGAGEGQAAKEFIAWLVKGRVEIGYHYYGMDVWGQGTLVTVSSASASTKGPSVFPLAPCSRSTSESTAALGCLVKDYFPEPVTVSWNSGALTSGVHTFPAVLQSSGLYSLSSVVTVPSSNFGTQTYTCNVDHKPSNTKVDKTVERKCCVECPPCPAPPVAGPSVFLFPPKPKDTLMISRTPEVTCVVVDVSHEDPEVQFNWYVDGVEVHNAKTKPREEQFNSTFRVVSVLTVVHQDWLNGKEYKCKVSNKGLPAPIEKTISKTKGQPREPQVYTLPPSREEMTKNQVSLTCLVKGFYPSDIAVEWESNGQPENNYKTTPPMLDSDGSFFLYSKLTVDKSRWQQGNVFSCSVMHEALHNHYTQKSLSLSPG
light: B2 light with I45S, Y53V, D72N, Q74K, P76R, T111S, N114T, I115S, A118V, A119W
B4: GLP1R-242: GLP1R scFv clone reformatted to IgG2; CDR-H3 SEQ ID NO 2300, heavy 2307, light 2314 (antibody)
heavy: MEWSWVFLFFLSVTTGVHSQVQLVQSGAEVKKPGSSVKVSCKASGGTFSSYEISWVRQAPGQGLEWMGGIIPILGIANYAQKFQGRVTITADESTSTAYMELSSLRSEDTAVYYCAKHMSMQADTGTFTSDVSSYLEGQAAKEFIAWLVKGEFSSRADLVGDAFDVWGQGTLVTVSSASASTKGPSVFPLAPCSRSTSESTAALGCLVKDYFPEPVTVSWNSGALTSGVHTFPAVLQSSGLYSLSSVVTVPSSNFGTQTYTCNVDHKPSNTKVDKTVERKCCVECPPCPAPPVAGPSVFLFPPKPKDTLMISRTPEVTCVVVDVSHEDPEVQFNWYVDGVEVHNAKTKPREEQFNSTFRVVSVLTVVHQDWLNGKEYKCKVSNKGLPAPIEKTISKTKGQPREPQVYTLPPSREEMTKNQVSLTCLVKGFYPSDIAVEWESNGQPENNYKTTPPMLDSDGSFFLYSKLTVDKSRWQQGNVFSCSVMHEALHNHYTQKSLSLSPG
light: B2 light with I45S, G50E, Y53D, D71G, D72N, I115T, A119G
B5: GLP1R-238: GLP1R scFv clone reformatted to IgG2; CDR-H3 SEQ ID NO 2296, heavy 2303, light 2310 (antibody)
heavy: MEWSWVFLFFLSVTTGVHSQVQLVQSGAEVKKPGSSVKVSCKASGGSFSSHAISWVRQAPGQGLEWMGGIIPIFGAPNYAQKFQGRVTITADESTSTAYMELSSLRSEDTAVYYCARANQHFSQAGRAARVPGPSSSLGPRGYHYYGMDVWGQGTLVTVSSASASTKGPSVFPLAPCSRSTSESTAALGCLVKDYFPEPVTVSWNSGALTSGVHTFPAVLQSSGLYSLSSVVTVPSSNFGTQTYTCNVDHKPSNTKVDKTVERKCCVECPPCPAPPVAGPSVFLFPPKPKDTLMISRTPEVTCVVVDVSHEDPEVQFNWYVDGVEVHNAKTKPREEQFNSTFRVVSVLTVVHQDWLNGKEYKCKVSNKGLPAPIEKTISKTKGQPREPQVYTLPPSREEMTKNQVSLTCLVKGFYPSDIAVEWESNGQPENNYKTTPPMLDSDGSFFLYSKLTVDKSRWQQGNVFSCSVMHEALHNHYTQKSLSLSPG
light: MSVPTQVLGLLLLWLTDARCQSVLTQPPSVSAAPGQKVTISCSGSTSNIANNYVSWYQQLPGTAPKLLIYANNRRPSGIPDRFSGSKSGTSATLGITGLQTGDEADYYCGAWDVRLDVGVFGGGTKLTVLGQPKAAPSVTLFPPSSEELQANKATLVCLISDFYPGAVTVAWKADSSPVKAGVETTTPSKQSNNKYAASSYLS
B6: GLP1R-240: GLP1R scFv clone reformatted to IgG2; CDR-H3 SEQ ID NO 2298, heavy 2305, light 2312 (antibody)
heavy: MEWSWVFLFFLSVTTGVHSQVQLVQSGAEVKKPGSSVKVSCKASGGTFNNYGISWVRQAPGQGLEWMGGIIPVFGTANYAQKFQGRVTITADESTSTAYMELSSLRSEDTAVYYCARDMYYDFFGLGTFTSDVSSYLEGQAAKEFIAWLVKGVSPEVVPADDAFDIWGQGTLVTVSSASASTKGPSVFPLAPCSRSTSESTAALGCLVKDYFPEPVTVSWNSGALTSGVHTFPAVLQSSGLYSLSSVVTVPSSNFGTQTYTCNVDHKPSNTKVDKTVERKCCVECPPCPAPPVAGPSVFLFPPKPKDTLMISRTPEVTCVVVDVSHEDPEVQFNWYVDGVEVHNAKTKPREEQFNSTFRVVSVLTVVHQDWLNGKEYKCKVSNKGLPAPIEKTISKTKGQPREPQVYTLPPSREEMTKNQVSLTCLVKGFYPSDIAVEWESNGQPENNYKTTPPMLDSDGSFFLYSKLTVDKSRWQQGNVFSCSVMHEALHNHYTQKSLSLSPG
light: MSVPTQVLGLLLLWLTDARCQSVLTQPPSVSAAPGQKVTISCSGSSSSIGNNYVSWYQQLPGTAPKLLIYANNKRPSGIPDRFSGSKSGTSATLGITGLQTGDEADYYCATWSSSPRGWVFGGGTKLTVLGQPKAAPSVTLFPPSSEELQANKATLVCLISDFYPGAVTVAWKADSSPVKAGVETTTPSKQSNNKYAASSYLSLTPEQWKSHRSYSCQVTHEGSTVEKTVAPTECS

Experiments:
GLP1R = GLP1R (Homo sapiens, UniProt P43220); assay: Binding assay with flow cytometry on flag-GLP1R-GFP expressing CHO cells (CHO-GLP1R); conditions: 100 nM IgG
Sequence of GLP1R (P43220 24-463): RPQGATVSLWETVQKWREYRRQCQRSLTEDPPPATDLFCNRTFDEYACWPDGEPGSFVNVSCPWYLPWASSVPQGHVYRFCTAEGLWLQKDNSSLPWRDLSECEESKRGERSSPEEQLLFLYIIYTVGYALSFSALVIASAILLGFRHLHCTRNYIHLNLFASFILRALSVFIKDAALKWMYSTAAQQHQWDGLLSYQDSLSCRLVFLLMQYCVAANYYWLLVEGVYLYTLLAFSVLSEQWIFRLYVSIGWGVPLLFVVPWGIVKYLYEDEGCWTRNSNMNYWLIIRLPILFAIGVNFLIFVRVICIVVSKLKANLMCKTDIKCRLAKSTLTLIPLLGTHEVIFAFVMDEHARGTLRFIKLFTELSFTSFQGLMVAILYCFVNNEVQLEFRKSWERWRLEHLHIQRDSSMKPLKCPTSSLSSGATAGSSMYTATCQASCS
Description: (§1) Briefly, flag-GLP1R-GFP expressing CHO cells (CHO-GLP1R) and CHO-parent cells were incubated with 100 nM IgG for 1 hour on ice, washed three times and incubated with Alexa 647 conjugated goat-anti-human antibody (1:200) for 30 minutes on ice, followed by three washes. All incubations and washes were performed in buffer containing PBS and 0.5% BSA. For titrations, IgG was serially diluted 1:3 starting from 100 nM. […] Analyses of binding assays with IgG titrations presented as binding curves plotting IgG concentrations against MFI (mean fluorescence intensity) are seen in FIGS. 15A-15H. Flow cytometry data of binding assays presented as dot plots with 100 nM IgG are seen in FIGS. 16A-16I.
(§2) The GLP1R IgGs were then assayed in binding assays coupled to flow cytometry analysis using similar methods as described in Example 12. Briefly, stably expressing Flag-GLP1R-GFP CHO cells or CHO-parent cells were incubated with primary IgG (100 nM or 1:3 titrations). Secondary antibody incubation involved Alexa 647 conjugated goat-anti-human IgG. Flow cytometry measured the GFP signal against the Alexa 647 signal to identify IgGs that specifically bound to the target (GLP1R).

[1] = Thermal ramp stability (Tm and Tagg), UNcle platform; format: physicochemical
Text: The GLP1R IgGs were characterized for thermal ramp stability (Tm and Tagg). The UNcle platform was used to characterize the IgGs and the data is seen in Table 21.

CHO-parent cells = assay: Binding assay with flow cytometry on CHO-parent cells; conditions: 100 nM IgG
Description: as §1, §2

Molecule | binding to CHO-GLP1R (GLP1R) | also measured
B1 | found to bind to CHO-GLP1R | 
B2 | found to bind to CHO-GLP1R | Average Tagg 266 [1]: 65.9 °C; Average Tm2 [1]: 75.7 °C; Average Tml [1]: 68.2 °C
B3 | found to bind to CHO-GLP1R | 
B4 | found to bind to CHO-GLP1R | 
B5 | found to bind to CHO-GLP1R | binding to CHO-parent cells versus CHO-GLP1R (specificity) (CHO-parent cells): bound equally to CHO-GLP1R and CHO-parent cells
B6 | found to bind to CHO-GLP1R | 
